# Data as given in the Human Domainome abundance scans (Beltran et al. 2025).
# ± gives the uncertainty stated by the source.
# B1: POU domain, class 3, transcription factor 2, residues 262 to 338; numbered along this chain, P20265 (parent)
# chain: EDTPTSDDLEQFAKQFKQRRIKLGFTQADVGLALGTLYGNVFSQTTICRFEALQLSFKNMCKLKPLLNKWLEEADSS
# Variants of: B1
# Assay: abundance fitness (aPCA) (normalised: wild type 0, dead -1); higher = more abundant; growth selection in yeast, the domain comes from the species named
# Conditions: Homo sapiens
row,Variant,abundance fitness
1,Q15K,-0.003 ± 0.046
2,Q15L,-0.067 ± 0.039
3,Q15C,-0.147 ± 0.059
4,Q15W,-0.033 ± 0.034
5,Q15H,0.042 ± 0.1
6,Q15D,-0.008 ± 0.068
7,Q15P,-1.08 ± 0.23
8,Q15S,0.013 ± 0.036
9,Q15E,0.018 ± 0.038
10,Q15A,-0.124 ± 0.034
11,Q15N,0.063 ± 0.11
12,Q15Y,0.092 ± 0.076
13,Q15I,-0.068 ± 0.15
14,Q15T,-0.038 ± 0.045
15,E10T,-0.103 ± 0.044
16,E10H,0.093 ± 0.047
17,E10C,-0.01 ± 0.05
18,E10N,-0.204 ± 0.075
19,E10G,-0.223 ± 0.028
20,E10S,-0.028 ± 0.034
21,E10D,-0.259 ± 0.057
22,E10I,-0.086 ± 0.069
23,E10K,0.124 ± 0.037
24,E10M,0.008 ± 0.038

row,Variant,abundance fitness
1,E10A,0.006 ± 0.033
2,E10L,0.128 ± 0.03
3,E10Y,0.054 ± 0.05
4,E10P,-0.189 ± 0.051
5,E10V,0.038 ± 0.028
6,R20S,-0.694 ± 0.084
7,R20T,-1.13 ± 0.19
8,R20A,-1.05 ± 0.1
9,R20M,-1.29 ± 0.3
10,R20I,-0.794 ± 0.31
11,R20Q,-0.87 ± 0.16
12,R20H,-1.02 ± 0.3
13,R20K,-1.25 ± 0.35
14,R20W,-0.909 ± 0.096
15,R20Y,-0.63 ± 0.17
16,R20D,-1.05 ± 0.24
17,R20G,-0.938 ± 0.065
18,R20F,-1.03 ± 0.41
19,R20V,-0.728 ± 0.059
20,R20E,-0.712 ± 0.079
21,R20C,-1.01 ± 0.18
22,R20N,-1.09 ± 0.4
23,R20L,-0.766 ± 0.066
24,T3G,-0.342 ± 0.03

row,Variant,abundance fitness
1,T3R,-0.086 ± 0.029
2,T3L,-0.086 ± 0.037
3,T3Q,-0.091 ± 0.045
4,T3N,-0.203 ± 0.05
5,T3M,0.117 ± 0.049
6,T3D,-0.324 ± 0.06
7,T3P,-0.205 ± 0.054
8,T3C,0.009 ± 0.06
9,T3E,-0.218 ± 0.043
10,T3Y,-0.029 ± 0.063
11,T3F,-0.142 ± 0.1
12,T3A,-0.365 ± 0.042
13,T3I,0.094 ± 0.06
14,T3S,-0.042 ± 0.036
15,T3W,-0.202 ± 0.042
16,T3K,-0.023 ± 0.048
17,Q18N,-0.292 ± 0.22
18,Q18D,-0.068 ± 0.061
19,Q18T,-0.029 ± 0.051
20,Q18S,-0.018 ± 0.037
21,Q18M,-0.089 ± 0.045
22,Q18H,-0.193 ± 0.093
23,Q18K,0.024 ± 0.062
24,Q18Y,-0.295 ± 0.17

row,Variant,abundance fitness
1,Q18G,-0.273 ± 0.031
2,Q18L,-0.13 ± 0.037
3,Q18R,-0.077 ± 0.032
4,Q18I,-0.223 ± 0.12
5,Q18V,-0.145 ± 0.036
6,Q18P,-1.21 ± 0.36
7,Q18C,-0.157 ± 0.044
8,S6K,0.091 ± 0.033
9,S6V,0.062 ± 0.027
10,S6I,0.011 ± 0.052
11,S6E,-0.038 ± 0.032
12,S6G,-0.05 ± 0.025
13,S6H,0.265 ± 0.068
14,S6T,0.099 ± 0.038
15,S6C,0.058 ± 0.042
16,S6Q,0.124 ± 0.035
17,S6A,0.108 ± 0.028
18,S6Y,0.126 ± 0.057
19,S6D,-0.092 ± 0.042
20,S6P,0.059 ± 0.041
21,S6W,0.098 ± 0.03
22,S6N,-0.032 ± 0.049
23,S6M,0.148 ± 0.04
24,L9E,-0.797 ± 0.093

row,Variant,abundance fitness
1,L9K,-0.606 ± 0.077
2,L9A,-0.491 ± 0.041
3,L9R,-0.716 ± 0.047
4,L9T,-0.289 ± 0.048
5,L9Q,-0.53 ± 0.061
6,L9H,-0.352 ± 0.069
7,L9P,-0.483 ± 0.067
8,L9G,-0.605 ± 0.05
9,L9C,-0.246 ± 0.052
10,L9W,-0.396 ± 0.037
11,L9I,0.074 ± 0.047
12,L9V,-0.107 ± 0.03
13,L9N,-0.394 ± 0.084
14,L9S,-0.564 ± 0.049
15,L9Y,-0.457 ± 0.083
16,L9D,-0.497 ± 0.078
17,T5P,-0.138 ± 0.042
18,T5N,0.026 ± 0.046
19,T5V,-0.108 ± 0.031
20,T5Y,-0.337 ± 0.089
21,T5H,-0.079 ± 0.064
22,T5R,-0.082 ± 0.027
23,T5C,0.038 ± 0.046
24,T5F,-0.109 ± 0.094

row,Variant,abundance fitness
1,T5E,-0.144 ± 0.039
2,T5L,-0.041 ± 0.034
3,T5Q,-0.082 ± 0.041
4,T5S,-0.008 ± 0.032
5,T5D,-0.042 ± 0.04
6,T5M,-0.056 ± 0.044
7,T5I,-0.006 ± 0.075
8,F16A,-0.656 ± 0.045
9,F16D,-0.854 ± 0.1
10,F16S,-0.802 ± 0.059
11,F16T,-0.677 ± 0.057
12,F16R,-0.69 ± 0.04
13,F16M,-0.606 ± 0.063
14,F16K,-0.633 ± 0.079
15,F16G,-0.818 ± 0.044
16,F16Q,-0.647 ± 0.088
17,F16C,-0.765 ± 0.076
18,F16I,-0.753 ± 0.13
19,F16W,-0.595 ± 0.047
20,F16Y,-0.767 ± 0.15
21,F16P,-0.733 ± 0.081
22,F16H,-0.91 ± 0.19
23,F16L,-0.477 ± 0.035
24,F16E,-0.618 ± 0.058

row,Variant,abundance fitness
1,F16V,-0.671 ± 0.042
2,F16N,-0.704 ± 0.13
3,E1W,-0.191 ± 0.084
4,E1Y,-0.177 ± 0.18
5,D8K,-0.074 ± 0.07
6,D8V,-0.153 ± 0.035
7,D8Q,0.055 ± 0.054
8,D8N,0.047 ± 0.096
9,D8R,-0.234 ± 0.029
10,D8H,-0.052 ± 0.097
11,D8I,-0.423 ± 0.12
12,D8C,-0.121 ± 0.057
13,D8E,0.079 ± 0.041
14,D8Y,-0.41 ± 0.14
15,D8A,-0.006 ± 0.038
16,D8S,0.034 ± 0.037
17,D8L,-0.172 ± 0.04
18,D8P,-0.34 ± 0.066
19,D8M,-0.056 ± 0.049
20,D8F,-0.186 ± 0.087
21,D8W,-0.418 ± 0.042
22,D8T,-0.093 ± 0.055
23,D8G,-0.043 ± 0.027
